Ends that are not written are not given here.
B1: conjugate of SEQ ID NO: 45 (CHDAPIGYD) and SEQ ID NO: 47 (Ac-CYGRKKRRQRRR-NH2) (peptide)
peptide 1: CHDAPIGYD
peptide 2: Ac-CYGRKKRRQRRR-NH2
modifications: not fully specified; cysteine pairing not given here; also: further groups not given here
B2: Ac-C(C)arrrar-NH2 (SEQ ID NO: 34) (peptide)
peptide: XXXXXXX
modifications: not fully specified; N-terminal acetyl; C-terminal amide; L-Cys 1 conjugated via a disulfide linkage to an L-Cys residue (C); residues 2-7 D
B3: Ac-bAla-c(C)arrrar-NH2 (SEQ ID NO: 61) (peptide)
peptide: XXXXXXXX
modifications: acetylated beta-alanine (Ac-bAla) at the N-terminus; C-terminal amide; carrrar all D; L-Cys (C) attached to the side chain of the D-Cys
B4: Ac-c(Benzoyl)rrrrrr-NH2 (SEQ ID NO: 81) (peptide)
peptide: XXXXXXX
modifications: N-terminal acetyl; C-terminal amide; all D-residues; benzoyl attached to the side chain of D-Cys 1
B5: Ac-caaarrrrrr-NH2 (SEQ ID NO: 77) (peptide)
peptide: XXXXXXXXXX
HELM: PEPTIDE1{[ac].[dC].[dA].[dA].[dA].[dR].[dR].[dR].[dR].[dR].[dR].[am]}$$$$V2.0
SMILES: CC(=O)N[C@H](CS)C(=O)N[C@H](C)C(=O)N[C@H](C)C(=O)N[C@H](C)C(=O)N[C@H](CCCNC(=N)N)C(=O)N[C@H](CCCNC(=N)N)C(=O)N[C@H](CCCNC(=N)N)C(=O)N[C@H](CCCNC(=N)N)C(=O)N[C@H](CCCNC(=N)N)C(=O)N[C@H](CCCNC(=N)N)C(N)=O
B6: Ac-c(PEG5-C)rrrrrr-NH2 (SEQ ID NO: 58) (peptide)
peptide: XXXXXXX
modifications: N-terminal acetyl; C-terminal amide; all D-residues; L-Cys carrying a 5 kDa polyethylene glycol (PEG5-C) attached to the side chain of D-Cys 1
B7: Ac-c(GS)rrrrrr-NH2 (SEQ ID NO: 53) (peptide)
peptide: XXXXXXX
modifications: not fully specified; N-terminal acetyl; C-terminal amide; all D-residues; oxidized glutathione (GS) attached to the side chain of D-Cys 1
B8: Ac-cArrrAr-NH2 (SEQ ID NO: 43) (peptide)
peptide: XAXXXAX
modifications: N-terminal acetyl; C-terminal amide; D-Cys 1, L-Ala 2 and 6, D-Arg 3, 4, 5 and 7
B9: Ac-dHcy rrrrrr-NH2 (SEQ ID NO: 32) (peptide)
peptide: XXXXXXX
modifications: N-terminal acetyl; C-terminal amide; D-homocysteine (dHcy) at position 1; D-Arg 2-7
B10: conjugate of SEQ ID NO: 46 (CPDYHDAGI) and SEQ ID NO: 47 (Ac-CYGRKKRRQRRR-NH2) (peptide)
peptide 1: CPDYHDAGI
peptide 2: Ac-CYGRKKRRQRRR-NH2
modifications: not fully specified; cysteine pairing not given here
B11: Ac-c(C)arrrar-NH2 (SEQ ID NO: 3) (peptide)
peptide: XXXXXXX
modifications: N-terminal acetyl; C-terminal amide; all seven residues D; D-Cys 1 conjugated via a disulfide linkage to an L-Cys residue (C)
B12: c(C)arrrar-NH2 (SEQ ID NO: 60) (peptide)
peptide: XXXXXXX
modifications: no N-terminal cap; C-terminal amide; all D-residues; L-Cys (C) attached to the side chain of D-Cys 1
B13: Ac-c(Mpa)arrrar-NH2 (SEQ ID NO: 56) (peptide)
peptide: XXXXXXX
modifications: N-terminal acetyl; C-terminal amide; all D-residues; mercaptopropionic acid (Mpa) attached to the side chain of D-Cys 1
B14: Ac-c(acetyl)rrrrrr-NH2 (SEQ ID NO: 82) (peptide)
peptide: XXXXXXX
modifications: N-terminal acetyl; C-terminal amide; all D-residues; acetyl attached to the side chain of D-Cys 1
B15: Ac-bAla-crrrrrr-NH2 (SEQ ID NO: 30) (peptide)
peptide: XXXXXXXX
modifications: acetylated beta-alanine (Ac-bAla) at the N-terminus; C-terminal amide; D-Cys and six D-Arg
B16: Ac-cygrkkrrqrrr-NH2 (SEQ ID NO: 50) (peptide)
peptide: XXXXXXXXXXXX
modifications: N-terminal acetyl; C-terminal amide; all D-residues (glycine printed in lower case)
B17: Ac-c(Ac-C)arrrar-NH2 (SEQ ID NO: 55) (peptide)
peptide: XXXXXXX
modifications: N-terminal acetyl; C-terminal amide; all D-residues; N-acetylated L-Cys (Ac-C) attached to the side chain of D-Cys 1
B18: Ac-CaRrRaR-NH2 (SEQ ID NO: 44) (peptide)
peptide: CXRXRXR
modifications: N-terminal acetyl; C-terminal amide; L-Cys 1, D-Ala 2, L-Arg 3, D-Arg 4, L-Arg 5, D-Ala 6, L-Arg 7
B19: Ac-carrrrr-NH2 (SEQ ID NO: 8) (peptide)
peptide: XXXXXXX
HELM: PEPTIDE1{[ac].[dC].[dA].[dR].[dR].[dR].[dR].[dR].[am]}$$$$V2.0
SMILES: CC(=O)N[C@H](CS)C(=O)N[C@H](C)C(=O)N[C@H](CCCNC(=N)N)C(=O)N[C@H](CCCNC(=N)N)C(=O)N[C@H](CCCNC(=N)N)C(=O)N[C@H](CCCNC(=N)N)C(=O)N[C@H](CCCNC(=N)N)C(N)=O
B20: Ac-crarrrr-NH2 (SEQ ID NO: 9) (peptide)
peptide: XXXXXXX
HELM: PEPTIDE1{[ac].[dC].[dR].[dA].[dR].[dR].[dR].[dR].[am]}$$$$V2.0
SMILES: CC(=O)N[C@H](CS)C(=O)N[C@H](CCCNC(=N)N)C(=O)N[C@H](C)C(=O)N[C@H](CCCNC(=N)N)C(=O)N[C@H](CCCNC(=N)N)C(=O)N[C@H](CCCNC(=N)N)C(=O)N[C@H](CCCNC(=N)N)C(N)=O
B21: Ac-crrarrr-NH2 (SEQ ID NO: 10) (peptide)
peptide: XXXXXXX
HELM: PEPTIDE1{[ac].[dC].[dR].[dR].[dA].[dR].[dR].[dR].[am]}$$$$V2.0
SMILES: CC(=O)N[C@H](CS)C(=O)N[C@H](CCCNC(=N)N)C(=O)N[C@H](CCCNC(=N)N)C(=O)N[C@H](C)C(=O)N[C@H](CCCNC(=N)N)C(=O)N[C@H](CCCNC(=N)N)C(=O)N[C@H](CCCNC(=N)N)C(N)=O
B22: Ac-crrrrra-NH2 (SEQ ID NO: 13) (peptide)
peptide: XXXXXXX
HELM: PEPTIDE1{[ac].[dC].[dR].[dR].[dR].[dR].[dR].[dA].[am]}$$$$V2.0
SMILES: CC(=O)N[C@H](CS)C(=O)N[C@H](CCCNC(=N)N)C(=O)N[C@H](CCCNC(=N)N)C(=O)N[C@H](CCCNC(=N)N)C(=O)N[C@H](CCCNC(=N)N)C(=O)N[C@H](CCCNC(=N)N)C(=O)N[C@H](C)C(N)=O

What follows are binders tested against T1, human calcium-sensing receptor (CaSR) (human, UniProt P41180 20-1078) (assay: cell-based or functional assay).
T1 sequence (looked up): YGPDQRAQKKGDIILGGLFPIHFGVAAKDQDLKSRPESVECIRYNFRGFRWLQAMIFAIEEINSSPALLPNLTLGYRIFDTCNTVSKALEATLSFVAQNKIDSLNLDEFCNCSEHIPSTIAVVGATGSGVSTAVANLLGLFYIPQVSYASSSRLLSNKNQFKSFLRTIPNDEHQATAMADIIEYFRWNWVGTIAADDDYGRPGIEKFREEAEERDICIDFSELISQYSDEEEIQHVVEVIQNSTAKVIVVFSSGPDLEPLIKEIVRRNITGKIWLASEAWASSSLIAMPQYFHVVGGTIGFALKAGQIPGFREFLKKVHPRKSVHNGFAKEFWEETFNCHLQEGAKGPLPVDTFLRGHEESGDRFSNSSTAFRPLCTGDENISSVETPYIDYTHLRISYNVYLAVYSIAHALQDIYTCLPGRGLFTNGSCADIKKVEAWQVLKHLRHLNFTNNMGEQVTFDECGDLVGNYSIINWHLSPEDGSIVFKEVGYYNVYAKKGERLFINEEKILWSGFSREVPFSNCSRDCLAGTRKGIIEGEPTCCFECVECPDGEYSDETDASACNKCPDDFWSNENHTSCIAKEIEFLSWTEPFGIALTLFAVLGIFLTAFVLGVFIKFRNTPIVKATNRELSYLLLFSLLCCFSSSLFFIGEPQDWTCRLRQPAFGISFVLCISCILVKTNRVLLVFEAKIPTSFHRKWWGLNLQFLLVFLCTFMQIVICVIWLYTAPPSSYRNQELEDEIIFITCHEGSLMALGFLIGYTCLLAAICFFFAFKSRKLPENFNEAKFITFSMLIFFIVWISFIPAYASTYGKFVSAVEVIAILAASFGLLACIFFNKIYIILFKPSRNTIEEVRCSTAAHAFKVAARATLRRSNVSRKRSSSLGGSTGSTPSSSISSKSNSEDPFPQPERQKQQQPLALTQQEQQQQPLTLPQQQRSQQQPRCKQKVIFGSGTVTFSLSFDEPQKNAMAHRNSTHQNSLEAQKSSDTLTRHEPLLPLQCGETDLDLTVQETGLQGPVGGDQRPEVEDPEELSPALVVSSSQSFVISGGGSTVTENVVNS

Binder	EC50 (IP1 production in HEK293 cells that express the human CaSR) [µM]
B1	21
B2	2.5
B3	2.6
B4	3.6
Ac-CARRRAR-NH2 [Ac-CARRRAR-NH2 (SEQ ID NO: 75)]	58
B5	4.6
B6	0.58
XXXXXXX (no N-terminal cap; C-terminal amide; all D-residues) [crrrrrr-NH2 (SEQ ID NO: 80)]	1.1
B7	7.8
B8	> 1000
B9	2
XXXXXXX (N-terminal acetyl; free C-terminal acid (-OH); all D-residues) [Ac-carrrar-OH (SEQ ID NO: 74)]	31
B10	21
B11	10
Ac-CYGRKKRRQRRR-NH2 [Ac-CYGRKKRRQRRR-NH2 (SEQ ID NO: 47)]	4.5
B12	3.1
XXXXX (N-terminal acetyl; C-terminal amide; all D-residues) [Ac-crrrr-NH2 (SEQ ID NO: 4)]	16
B13	21
B14	4.1
B15	1
B16	2
B17	21
Ac-YGRKKRRQRRR-NH2 [Ac-YGRKKRRQRRR-NH2 (SEQ ID NO: 48)]	16
B18	5.6

Biological target: T1, human calcium-sensing receptor (CaSR)
Assay: cell-based or functional assay
Remark: another data set of the same source

Binder	fold reduction in potency against Ac-carrrar-NH2 (SEQ ID NO:26) [fold]	fold difference in potency against the CaSR, against Ac-crrrrrr-NH2 (SEQ ID NO:6) [fold]	fold loss in in vitro potency against Ac-crrrrrr-NH2 (SEQ ID NO:6), human CaSR assay in HEK 293 cells [fold]	fold decrease in potency against Ac-carrrar-NH2 (SEQ ID NO:26) [fold]	shift in potency (HEK-293 in vitro cell assay), 4 against 5 arginine subunits [fold]	fold difference in potency against Ac-carrrar-NH2 (SEQ ID NO:26) [fold]
XGXXXGX (N-terminal acetyl; C-terminal amide; D-Cys 1, Gly 2 and 6, D-Arg 3, 4, 5 and 7) [Ac-cGrrrGr-NH2 (SEQ ID NO: 42)]	< 8					
XXXXXXX (N-terminal acetyl; C-terminal amide; all D-residues) [Ac-carrrar-NH2 (SEQ ID NO: 26)]		~3				
B19			~2			
B20			~2			
B8		> 2000		> 600		
B21			~2			
XXXXX (N-terminal acetyl; C-terminal amide; all D-residues) [Ac-crrrr-NH2 (SEQ ID NO: 4)]					> 10	
B22			~2			
B18		10				< 4

Source: patent US20130150301A1 (KAI PHARMACEUTICALS, published 2013)
